Measured values from the DeepSol protein solubility set.

Assay: soluble on expression in E. coli; label from the status in PepcDB or PDB records

Sequence	soluble on expression in E. coli
MAVPPAYSDLGKSAKDIFSKGYGFGIVKLDLKTKSQNGVEFNTSGSTNTDTGKAAGSLETKYKLKDLGLSFNQKWNTDNMLTTEVSVEDQLAEGLKVALDTSFVPNTGKKSGKLKTSYKREFVNVSCDLDFEGPVVHSAAVLGYEGWLLGYLVAFDTAKSKLVQNNFALGYKTGDFQLHTNVNDGAEFGGSVYQKVSDQLETAVTLAWTAGSNNTRFGVAAKYQLDKDASLSAKVNNASLIGIGYTQSLRPGVKLTLSALVDGKNFNTGGHKVGLGFELEA	not soluble
MAVPSGVHRCFFRGQSVSLEKLLSIFASEVCEQVVFIGENHEHSVAQQLELRILEALWLSSQRQNRQLLLSLEFLDRSQQHVLNEAMLRDEIESVVPEPYVPLVRFARTNNLAVLAANAPRSITSRVAKQGQQAVMETLSPKERAWCAPTPWPAPSNAYSEAFQAIMQQVMRPDPSSAQAQQERMQRMLQAQSLWDATMAFSIAEALERYPKAQVLHVTGFFHVANRLGTVEMLAHYRNTVNALVSIVYPEELQHSTSALDGDVVIYAP	not soluble
MAVRPVLAVGSYLPHAPWPWGVIDQAARVLLPASTTVRAAVSLPNASAQLVRASGVLPADGTRRAVLYLHGGAFLTCGANSHGRLVELLSKFADSPVLVVDYRLIPKHSIGMALDDCHDGYRWLRLLGYEPEQIVLAGDSAGGYLALALAQRLQEVGEEPAALVAISPLLQLAKEHKQAHPNIKTDAMFPARAFDALDALVASAAARNQVDGEPEELYEPLEHITPGLPRTLIHVSGSEVLLHDAQLAAAKLAAAGVPAEVRVWPGQVHDFQVAASMLPEAIRSLRQIGEYIREATG	soluble
MAVSLFKQLQIVWDYHLVNQEIRKSDAIFVLCSYDLRVAEHAAQLYLDGYAPLLIFSGAQGRATEGLFTLSEAETFANVAKDMGVPSSAIIVETKATNTGENIFFTQALLKERNISVSSLILVQKPYMERRLLATFLKNWNDIEFCISSPNISFINYPTDEITFDHIASIILGELHRLKVYPTLGYQEAQEIPDEVWQAFENLTQLGFDEYLLTNDNLEHHHHHH	not soluble
MAVVKVIRKLKAKRVVIKVGTSTLVYPDGSINLRAIDQLAFVISAMRHRGREVVLVSSGAIGVGLNYMGLKQRPKAIPEQQAIAAIGQTELISIYKERFAIYEQKIGQLLLTRDIFVYPKSHHNVLNTFEALLKQNVVPIVNENDTVAVDELDHETKFGDNDQLSAIVATNIGADLLIMLSDIDGFYDGNPNADARAQLLGHIEKVDQHTYKLAGGSGSRFGTGGMVTKLKAAERMIDANGQMILANGADPTIIFQILAGEPVGTLFGLEHHHHHH	not soluble
MAYCNPGLESRPNKRNALRRHVVTGIGMKIVIAPDSYKESLSASEVAQAIEKGFREIFPDAQYVSIPVADGGEGTVEAMIAATQGSERHAWVTGPLGEKVNASWGISGDGKTAFIEMAAASGLELVPAEKRDPLVTTSRGTGELILQALESGATNIIIGIGGSATNDGGAGMVQALGAKLCDANGNEIGFGGGSLNTLNDIDISGLDPRLKDCVIRVACDVTNPLVGDNGASRIFGPQKGASEAMIVELDNNLSHYADVIKKALHVDVKDVPGAGAAGGMGAALMAFLGAELKSGIEIVTTALNLEEHIHDCTLVITGEGRIDSQSIHGKVPIGVANVAKKYHKPVIGIAGSLTDDVGVVHQHGIDAVFSVLTSIGTLDEAFRGAYDNICRASRNIAATLAIGMRNTG	not soluble
MAYITYQQYLDLYGTCPISEEEFPVYAGLASDMIDSITRYRIVEGGGISALPSILQTLVQKAAAAQVLYFTQIGLETVLTGQAGQSFTVGKVSVSGGALSSTTTKPGALMVSPFALSLLEQTPLMERGVHVCSDRFLNPFWGILEHHHHHH	soluble
MAYKSLLTVATSPERVEPAITVASRLALSSDAHLDVLALGIDGTQVAYYNMGGTAVVLQMALERAEQEAQAVEKAAAAALSAQPAMLRASVESAVAQMGGLAGLVALRSRFADLVVLSRPYGKGRGAETEAVVEAALFEGQAPVLVVPDDPALSERFGHRIVIAWDQSREALTAVRKAMPFLLRADNVDIVIVDPAAHGAERSDPGGALCQMLVRHGVRAEVSVLAKTMPRISDVIARHVRDQDADLLVMGAYGHSRFREAILGGATRDMLELAEVPVLMAH	not soluble
MAYLEQLQAGLRYLGRAGESGRKSLDKVVAPVNGAISEIRGAAAELENLPGVSPEMAARLQRAMRGIGQAQGKVNRVVSTYDRASRALLGIDERLDALKVQVNSAAQAVGKVAGDISPTLAGVLPSWLLAPSATPPSEAAASLPHLLVLQPLTANAQPFYFNLNTAAFDALQRNSAYNWSGQVRLGRRPALQSVGMGEESILLKGAVFPLRRQVGNQEKVVGLEQLEALRRLAERREPLILSSGYGEVQMGLWCLVRISENQSALLGNGAPRKQTFDLEFKRYGDDLPNR	not soluble
MAYQSKNTDEHVTFADALLSKRYRKAQNDFLNQVERLIDWRPIRTLINKKYTKRQNAIGAPAYDVILLFKMLLLETWYNLSDCALEERINDSITFSRFLGLKMEEVSPDHSTISRFRSALTELGLMDKLLAQFNKQLSRHHISVREGVLVDASLVETPHKPNGTITIEVADDREDNRSEAEKEAEEDYQKQVVRRRKGTDEEARWVYKQKRYHYGYKKHCLTNVQGIVQKVITTAANRSDTKEFIPLLQGANIPQGTAVLADKGYACGENRSYLQTHHLQDGIMHKAQRNRALTEEEKQGNKAISPIRSTIERTFGSIRRWFHGGRCRYRGLAKTHTQNILESIAFNLYRTPGIIMSSSLG	not soluble
MAYRDQPLGELALSIPRASALFRQYDMDYCCGGKQTLARAAARHDVDIDIIEAQLAQLAEQPIEKDWRAVPLADIIDHIVVRYHDRHREQLPELILQATKVERVHADKPNVPRGLTKYLTALHEELSSHMMKEEQILFPMIKQGMGRQATGPISVMESEHDEAGELVDVIKHVTKNVTPPPEACTTWKAMYNGINEMIDDLMEHISLENNVLFPRALAGE	not soluble
MAYRERAAWAPEGYMLPLPGACLPSLPENLPGAPRPYRKGVSAGFVFRQGDACVPVVRGMGVVAAFGGEVVKVDPDFQELSEEAWQALLERVREGASPEEMDILRGLEVHVRHPDGRTTVYAHLQAPYPGLKVGSRVHRGDPIGYVGNTGLRGGASRLLFEVWEGEPDRSAFLFQGLEGEELLRRARAFFGLP	soluble
MAYRICLIEGDGIGHEVIPAARRVLEATGLPLEFVEAEAGWETFERRGTSVPEETVEKILSCHATLFGAATSPTRKVPGFFGAIRYLRRRLDLYANVRPAKSRPVPGSRPGVDLVIVRENTEGLYVEQERRYLDVAIADAVISKKASERIGRAALRIAEGRPRKTLHIAHKANVLPLTQGLFLDTVKEVAKDFPLVNVQDIIVDNCAMQLVMRPERFDVIVTTNLLGDILSDLAAGLVGGLGLAPSGNIGDTTAVFEPVHGSAPDIAGKGIANPTAAILSAAMMLDYLGEKEAAKRVEKAVDLVLERGPRTPDLGGDATTEAFTEAVVEALKSL	soluble
MAYRNIKIVKGNGGFGGPLIIAPTDEKHKFIYITGGGEKPEIVDKIVELTGMEAVNGFKTSIPDEEIALAIVDCGGTLRCGIYPKKGIPTINIVATGKSGPLAQYITEDIYVSAVGMEQITSIEESAGSIETKEAKAETAQSQTGTGTYDTSKKITEQRAQQSVIARIGMGAGKVVAVFNQAARDAIQ	not soluble
MCELDILHDSLYQFCPELHLKRLNSLTLACHALLDCKTLTLTELGRNLPTKARTKHNIKRIDRLLGNRHLHKERLAVYRWHASFICSGNTMPIVLVDWSDIREQKRLMVLRASVALHGRSVTLYEKAFPLSEQFQRKLMTNFLEHHHHHH	not soluble
MCESKIDRNRIWIVGTNATYPPFEYVDAQGEVVGFDIDLAKAISEKLGKQLEVREFAFDALILNLKKHRIDAILAGMSITPSRQKEIALLPYYGDEVQELMVVSKRSLETPVLPLTQHSSVAVQTGTFQEHYLLSQPGICVRSFDSTLEVIMEVRYGKSPVAVLEPSVGRVVLKDFPNLVATRLELPPECWVLGCGLGVAKDRPEEIQTIQQAITDLKSEGVIQSLTKKWQLSEVAYELEHHHHHH	soluble
MCFHNSMSAKAIKVAARYGRQSDVVEIYQSILDEQYHVNAFTFPRYPIITSSDEVQVFNWGLIPFWVRSEEDATEIRKMTLNARADTIFEKPSFREPIMKKRCIVPSTGYFEWRHEGANKIPYYIYVKDEPIFSMAGIYDRWLDKDTGEEHETFSIITTDTNSLTDYIDNTKHRMPAILTQEEEEKWLNPSLSKAEIASLLKPFDTEKMDAYVIRNDFLKKSPNDPTIVQRALEHHHHHH	soluble
